According to patent publication US8748176B2, “Generation of choroid plexus epithelial cells from human embryonic stem cells” (The Regents of the University of California, priority 2011, dated 2014):

How the values were obtained:
[1] = tested on: primary CPEC vesicles; experiment: CPEC vesicle secretion assay with secretion inhibitors, primary CPECs; type: cell-based, mouse; details: 100 uM acetazolamide and 5 mM ouabain together, 24 hrs; regrew upon withdrawal
From the text: (§1) To assess functional activity, we adopted a well-established in vitro assay for CPEC vesicle formation and secretion (33, 34). As described previously using this assay, primary dissociated CPECs on Matrigel self-assembled into hollow vesicles that grew in diameter, collapsed after treatment with the secretion inhibitors acetazolamide and ouabain, and regrew upon inhibitor withdrawal (FIG. 5A-G). Indistinguishable vesicles formed from dissociated SFEBq aggregates treated with BMP4 (n=6/6 independent cultures), but not from controls (n=0/6; FIGS. 5H,I). Like the primary CPEC vesicles, the SFEBq-derived vesicles were Aqp1 positive (FIG. 5I, inset), grew (FIGS. 5J,K), collapsed after exposure to the secretion inhibitors (FIG. 5L), and recovered after inhibitor removal (FIG. 5M).
(§2) Primary CP cells or SFEBq-derived cells were cultured on Matrigel as previously described (33, 34). Briefly, Matrigel (BD Biosciences, San Jose, Calif.) was mixed 1:1 with DMEM (Invitrogen) and incubated for at least 30 min at 37 C. BMP4-treated SFEBq aggregates at 12 DIV were dissociated with TrypLE Express (Invitrogen) and plated at 500,000 to 600,000 cells/well onto Matrigel-coated 6-well plates in DMEM with 10% FBS, 2 mM L-glutamine, NEAA, and sodium pyruvate (Invitrogen). […]

[2] = tested on: SFEBq-derived vesicles; experiment: CPEC vesicle secretion assay with secretion inhibitors, mESC-derived vesicles; type: cell-based, mouse; details: 100 uM acetazolamide and 5 mM ouabain together, 24 hrs; recovered after removal
From the text: as §1, §2

[3] = tested on: dissociated SFEBq aggregates; experiment: in vitro assay for CPEC vesicle formation on Matrigel; type: cell-based, mouse; details: SFEBq aggregates treated with 50 ng/ml BMP4; controls n=0/6
From the text: as §1, §2

[4] = tested on: mESC-derived NECs; experiment: BMP4 treatment of mESC-derived SFEBq aggregates, CPEC/NEC marker RT-qPCR; type: cell-based, mouse
Procedure: Significant and similar levels of CPEC gene induction were also seen with one-time BMP4 addition alone (data not shown). These findings indicate a relatively short and early critical period in culture for BMP4-mediated CPEC marker induction, which occurs at the expense of NEC markers.
(§3) These were performed as described (21, 26) on a StepOne Plus (Applied Biosystems, Carlsbad, Calif.) using 18S normalization and Excel for graphing and statistics (two-tailed t-tests assuming equal variance). All primers and amplicons were validated as described (21, 26). All studies represent n>2 biological replicates per condition, unless otherwise specified.
Neural differentiation was adapted from Eiraku et al. (29). Briefly, mESCs were passaged for two hours onto gelatin-coated plates to reduce MEF load, dissociated to single cells using trypsin, then plated at varying concentrations onto ultra-low attachment U-bottom 96-well plates (Corning #7007, Lowell, Mass.) to form SFEBq aggregates. Differentiation media (29) was replaced initially, then every other day, with fresh media containing 0.5 to 50 ng/ml BMP4 (R&D Systems). Neural rosette (NR) cultures were based on the Elkabetz et al. method (30). […] For the combined SFEBq/NR method, we first generated SFEBq aggregates for 5 DIV, then transferred aggregates into adherent mNR conditions for another 2 DIV (7 DIV total).

[5] = tested on: mESC-derived NECs plated as adherent monolayers; experiment: combined aggregation-monolayer system, CPEC markers by RT-qPCR and immunocytochemistry; type: cell-based, mouse
Procedure: In addition to direct BMP4 applications to SFEBq aggregates, we also dissociated SFEBq aggregates into single cells after 5DIV (i.e. after they had differentiated into NECs), plated them as adherent monolayers onto PDL-laminin-coated plates at 300,000-600,000 cells, then added BMP4 (0.5-50 ng/ml BMP4) for another 5 days (10DIV total). This combined aggregation-monolayer system allows all NECs to experience the same BMP4 concentration in culture. […] The optimal concentration of BMP4 is probably between 0.5 ng/ml-50 ng/ml BMP4 in this system.
as §3

[6] = tested on: H9 hESC SFEBq aggregates; experiment: BMP4 applied to H9 hESC SFEBq aggregates, CPEC marker expression; type: cell-based, human; details: BMP4 0-15 ng/ml, 18 to 24-DIV aggregates
Procedure: We also generated human CPECs by applying the SFEBq neural induction method to human ESCs (H9 line). H9 hESCs were optimized for aggregate size and assessed for NEC gene expression over time. 9000-cell SFEBq aggregates were optimal, and NEC expression plateaued by 18-24 DIV. BMP4 (0-15 ng/ml) was applied to 12-, 15-, 18-, 21-, and 24-DIV aggregates. […] Based on RT-qPCR studies, peak expression of NEC markers, but not radial glial markers, coincided with the 21 DIV aggregates.
(§4) 1) Neural rosette (NR) method. Neural induction with NR formation was adapted from Zhang et al. (35). Human ESC colonies were partially dissociated with 1 mg/ml dispase, then plated in suspension to form embryoid bodies (EBs) for 3 DIV. EBs were then transferred to suspension culture with neural induction media—DMEM/F12 (Invitrogen), N2 (Invitrogen), NEAA, heparin (2 ug/ml) and FGF2 (20 ng/ml)—for another two days. On 6 DIV, EBs were transferred to adherent PDL/laminin-coated plates with neural induction media, which was fully replaced every other day. On 16 DIV, media was fully replaced with neural induction media containing BMP4 (0.5-15 ng/ml), with full media replacement every other day. 2) Aggregate (SFEBq) method. […] The SFEBq media was changed every 3 days, with or without fresh BMP4, and the culture was analyzed after 1-2 weeks of BMP4 incubation, with greater CPEC differentiation detected at 2 weeks.

[7] = tested on: H1-derived NRs; experiment: BMP4 addition to hESC-derived neural rosettes (NR method); type: cell-based, human; details: BMP4 0.5-15 ng/ml, evident by 7 DIV after addition
From the text: We then attempted to derive iCPECs from human ESCs using an analogous approach. To first generate NECs, we used the Zhang et al. method (35) to generate neural rosettes (NRs) (FIGS. 6A,B) with predominant forebrain character (30). […] Eventually, the hESC-derived vesicles transformed into flat epithelial sheets (FIG. 6D), and occasional multivesicular bodies also formed (FIG. 6E). […] H9 cultures yielded similar morphologic changes, although NR-to-vesicle transformations were less prominent.
as §4, with “day.” for “day. 2) Aggregate (SFEBq) method.”

Molecule | vesicle response to secretion inhibitors [1] | vesicle response to secretion inhibitors [2] | independent cultures forming vesicles on Matrigel [3] | CPEC markers Ttr, Lmx1a, and Msx1 induction ([4]; 5-day aggregates, BMP4 5 or 50 ng/ml for 7 DIV) | CPEC markers Aqp1 and Cldn1 induction ([4]; 5-day aggregates, BMP4 concentration-dependent) | NEC markers Sox1 and Foxg1 expression ([4]; with increasing BMP4 concentration) | CPEC markers by RT-qPCR at 50 ng/ml ([5]; 50 ng/ml BMP4) | optimal BMP4 concentration for CPEC marker upregulation ([5]; 0.5-50 ng/ml BMP4 for 5 days, 10DIV total) [ng/mL] | CPEC markers Ttr, Otx2, and Lmx1a expression [6] | morphologic transformation of neural rosettes [7]
CC(=O)Nc1nnc(S(N)(=O)=O)s1 [acetazolamide] | collapsed | collapsed | – | – | – | – | – | – | – | –
C[C@@H]1O[C@@H](O[C@H]2C[C@@H](O)[C@]3(CO)[C@H]4[C@H](O)C[C@]5(C)[C@@H](C6=CC(=O)OC6)CC[C@]5(O)[C@@H]4CC[C@]3(O)C2)[C@H](O)[C@H](O)[C@H]1O [ouabain] | collapsed | collapsed | – | – | – | – | – | – | – | –
BMP4: Bone Morphogenetic Protein 4 (GeneID: 652), recombinant, commercially available (R&D Systems) (protein, UniProt P12644 293-408, looked up) Bone morphogenetic protein 4: SPKHHSQRARKKNKNCRRHSLYVDFSDVGWNDWIVAPPGYQAFYCHGDCPFPLADHLNSTNHAIVQTLVNSVNSSIPKACCVPTELSAISMLYLDEYDKVVLKNYQEMVVEGCGCR | – | – | 6/6 | markedly induced | strongly induced | downregulated | down-regulation of CPEC markers | 5 | upregulated | transformed directly into expanding vesicular structures
